This sample holds only a part of the variants without activity.
Legend:
biotinyl-Val-oxazolone = assay: self-aminoacylation, catalytic enhancement (BVO) (fold over background); higher = more active; k-Seq, kA / k0A0; sequences stand for … in GGGAAUGGAUCCACAUCUACGAAUUC…UUCACUGCAGACUUGACGAAGCUG
Outline: (§1)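 The uncatalyzed rate is the low-activity peak of a bimodal Gaussian fit, and catalytic enhancement is median kA divided by it. The kA values came from pseudo-first-order fits, with 1000 bootstraps, of per-sequence fraction reacted measured by streptavidin capture, triplicate qPCR and Illumina sequencing. Mutagenized RNA pools with a 21-nt variable region (0.43 μM) were reacted with each biotinyl-aminoacyl-oxazolone at 2–1250 μM in 50 μL HEPES/NaCl/KCl/MgCl2/CaCl2 buffer with 5% acetonitrile, pH 6.9–7.0, for 90 minutes at room temperature.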

biotinyl-Leu-oxazolone = assay: self-aminoacylation, catalytic enhancement (BLO) (fold over background); higher = more active; k-Seq, kA / k0A0; sequences stand for … in GGGAAUGGAUCCACAUCUACGAAUUC…UUCACUGCAGACUUGACGAAGCUG
Outline: as §1

biotinyl-Trp-oxazolone = assay: self-aminoacylation, catalytic enhancement (BWO) (fold over background); higher = more active; k-Seq, kA / k0A0; sequences stand for … in GGGAAUGGAUCCACAUCUACGAAUUC…UUCACUGCAGACUUGACGAAGCUG
Outline: as §1

biotinyl-Met-oxazolone = assay: self-aminoacylation, catalytic enhancement (BMO) (fold over background); higher = more active; k-Seq, kA / k0A0; sequences stand for … in GGGAAUGGAUCCACAUCUACGAAUUC…UUCACUGCAGACUUGACGAAGCUG
Outline: as §1

biotinyl-Phe-oxazolone = assay: self-aminoacylation, catalytic enhancement (BFO) (fold over background); higher = more active; k-Seq, kA / k0A0; sequences stand for … in GGGAAUGGAUCCACAUCUACGAAUUC…UUCACUGCAGACUUGACGAAGCUG
Outline: as §1

biotinyl-Ile-oxazolone = assay: self-aminoacylation, catalytic enhancement (BIO) (fold over background); higher = more active; k-Seq, kA / k0A0; sequences stand for … in GGGAAUGGAUCCACAUCUACGAAUUC…UUCACUGCAGACUUGACGAAGCUG
Outline: as §1

Sequence	self-aminoacylation (biotinyl-Val-oxazolone)	self-aminoacylation (biotinyl-Leu-oxazolone)	self-aminoacylation (biotinyl-Trp-oxazolone)	self-aminoacylation (biotinyl-Met-oxazolone)	self-aminoacylation (biotinyl-Phe-oxazolone)	self-aminoacylation (biotinyl-Ile-oxazolone)
CCAUACUUCAAGCAAUCGGUG [Fam1B.1 aminoacylation ribozyme variant]	4.3	8.33	6.14	5.58	24.4	4.16
CCAUACUUCAAGCAAUUGGUC [Fam1B.1 aminoacylation ribozyme variant]	0.762	0.667	0.625	0.689	1.13	0.743
CCAUACUUCCAGCAAUCGGUC [Fam1B.1 aminoacylation ribozyme variant]	1.39	1.1	0.815	1.06	0.952	1.45
CCAUUCUUCAAGCAAUCGGUC [Fam1B.1 aminoacylation ribozyme variant]	0.976	0.992	1.68	0.939	2.79	1.04
CCAUUUCAAACAAUCGGUCUG [Fam1A.1 aminoacylation ribozyme variant]	1.04	1.19	5.46	1.13	7.75	1.03
CCCCACUUCAAGCAAUGGGUC [Fam1B.1 aminoacylation ribozyme variant]	1.67	0.835	1.96	0.959	1.88	1.32
CCCCACUUCAAGCACUCGGUC [Fam1B.1 aminoacylation ribozyme variant]	2.79	3.08	4.4	2.79	11	2.26
CCCCACUUCAAGCCAUCGGUC [Fam1B.1 aminoacylation ribozyme variant]	2.82	2.63	4.79	2.87	10	2.33
CCCCAGUUCAAGCAAUCGGUC [Fam1B.1 aminoacylation ribozyme variant]	2.65	3.86	7.44	2.77	7.95	2.48
CCGCAAUUCAAGCAAUCGGUC [Fam1B.1 aminoacylation ribozyme variant]	2.12	1.9	14.2	1.73	18.7	1.94
CCGCACUCCAAGCAAUCGGUC [Fam1B.1 aminoacylation ribozyme variant]	1.7	0.931	5.87	0.991	6.39	1.14
CCGCACUUCAAGCAAUCAGUC [Fam1B.1 aminoacylation ribozyme variant]	0.859	0.943	7.12	0.798	18.8	0.854
CCGCACUUCAAGCAAUCGGCC [Fam1B.1 aminoacylation ribozyme variant]	3.21	1.61	6.53	1.71	6.69	1.97
CCGCACUUCAAGCAAUCGGUG [Fam1B.1 aminoacylation ribozyme variant]	5.59	10.3	8.54	7.36	55.1	5.07
CCGCACUUCAAGCAAUCGUUC [Fam1B.1 aminoacylation ribozyme variant]	0.944	0.688	0.659	0.742	1.26	0.8
CCGCACUUCAAGUAAUCGGUC [Fam1B.1 aminoacylation ribozyme variant]	1.37	1.54	14.5	1.4	15.6	1.3
CCGCACUUCACGCAAUCGGUC [Fam1B.1 aminoacylation ribozyme variant]	2.1	2.34	1.85	1.54	1.66	1.36
CCGCACUUCCAGCAAUCGGUC [Fam1B.1 aminoacylation ribozyme variant]	2.03	1.04	0.883	0.995	0.932	1.35
CCGCAUUUCAAGCAAUCGGUC [Fam1B.1 aminoacylation ribozyme variant]	2.48	2.72	14.3	1.92	16.8	2.36
CCUCACUUCAAGCAAUCGAUC [Fam1B.1 aminoacylation ribozyme variant]	0.691	0.453	0.672	0.482	1.71	0.494
CCUCACUUCAAGCAGUCGGUC [Fam1B.1 aminoacylation ribozyme variant]	0.855	0.892	0.928	0.646	1.1	0.786
CCUCACUUGAAGCAAUCGGUC [Fam1B.1 aminoacylation ribozyme variant]	0.678	0.607	0.664	0.679	0.809	0.636
CGAAACUUCAAGCAAUCGGUC [Fam1B.1 aminoacylation ribozyme variant]	1.18	0.993	5.43	0.901	7.94	1.17
CGACACCUCAAGCAAUCGGUC [Fam1B.1 aminoacylation ribozyme variant]	1.06	0.749	1.17	1.03	1.16	0.973
CGACACUUAAAGCAAUCGGUC [Fam1B.1 aminoacylation ribozyme variant]	0.95	0.849	0.792	0.956	1.13	0.886
CGACACUUCAAACAAUCGGUC [Fam1B.1 aminoacylation ribozyme variant]	1.64	1.71	12.5	1.31	22.9	1.23

Sequence	self-aminoacylation (biotinyl-Val-oxazolone)	self-aminoacylation (biotinyl-Leu-oxazolone)	self-aminoacylation (biotinyl-Trp-oxazolone)	self-aminoacylation (biotinyl-Met-oxazolone)	self-aminoacylation (biotinyl-Phe-oxazolone)	self-aminoacylation (biotinyl-Ile-oxazolone)
CGACACUUCAAGAAAUCGGUC [Fam1B.1 aminoacylation ribozyme variant]	1.26	1.24	2.88	1.25	3.41	1.62
CGACACUUCAAGCAAUCGAUC [Fam1B.1 aminoacylation ribozyme variant]	0.727	0.611	0.715	0.582	0.965	0.672
CGACACUUCAAGCAAUCGGAC [Fam1B.1 aminoacylation ribozyme variant]	1.31	1.57	1.31	1.74	1.21	1.67
CGACACUUCAAGCAAUCGUUC [Fam1B.1 aminoacylation ribozyme variant]	0.946	0.669	0.465	0.629	1	0.778
CGACACUUCAAGCAAUCUGUC [Fam1B.1 aminoacylation ribozyme variant]	0.51	0.411	0.416	0.52	0.656	0.554
CGACUUCAAACAAUCGGGCUG [Fam1A.1 aminoacylation ribozyme variant]	2.73	2.34	12.7	2.05	10.4	2.45
CGACUUCAAACAAUCUGUCUG [Fam1A.1 aminoacylation ribozyme variant]	0.86	0.664	1.84	0.815	3.02	0.926
CGACUUCAAACAAUGGGUCUG [Fam1A.1 aminoacylation ribozyme variant]	1.09	0.941	0.968	1.2	0.777	1.2
CGACUUCAAACAUUCGGUCUG [Fam1A.1 aminoacylation ribozyme variant]	1.96	1.43	2.1	1.49	8.04	1.81
CGACUUCAAACCAUCGGUCUG [Fam1A.1 aminoacylation ribozyme variant]	1.08	0.811	0.886	0.807	0.966	0.838
CGACUUCAUACAAUCGGUCUG [Fam1A.1 aminoacylation ribozyme variant]	0.904	0.738	0.879	0.796	1.01	0.939
CGUACCCUGGUCAUCGAGUGA [Fam2.1 aminoacylation ribozyme variant]	5.62	9.81	10.9	8.76	10.1	4.66
CGUCACCUAGGUCAUCGGGUG [Fam2.2 aminoacylation ribozyme variant]	5.16	4.11	6	3.71	28.9	3.51
CUAAUACAAACAAUCGGUCUG [Fam1A.1 aminoacylation ribozyme variant]	0.682	0.477	0.678	0.674	0.757	0.676
CUAAUGCAAACAAUCGGUCUG [Fam1A.1 aminoacylation ribozyme variant]	0.577	0.55	0.581	0.631	0.853	0.612
CUAAUUCAAACAAUCGGGCUG [Fam1A.1 aminoacylation ribozyme variant]	0.852	1.02	1.14	0.87	1.49	0.805
CUAAUUCAAACAGUCGGUCUG [Fam1A.1 aminoacylation ribozyme variant]	0.853	0.915	0.523	0.731	0.62	0.839
CUAAUUCAACCAAUCGGUCUG [Fam1A.1 aminoacylation ribozyme variant]	0.741	0.676	1.19	0.63	2.11	0.66
CUAAUUCAAUCAAUCGGUCUG [Fam1A.1 aminoacylation ribozyme variant]	0.72	0.735	2.7	0.742	4.62	0.805
CUACAACAAACAAUCGGUCUG [Fam1A.1 aminoacylation ribozyme variant]	0.642	0.743	0.491	0.496	0.946	0.646
CUACAAUUCAAGCAAUCGGUC [Fam1B.1 aminoacylation ribozyme variant]	0.779	0.75	1.61	0.819	2.71	0.902
CUACACUUAAAGCAAUCGGUC [Fam1B.1 aminoacylation ribozyme variant]	0.738	0.696	0.459	0.713	0.694	0.786
CUACACUUCAAGCAAUCGGCC [Fam1B.1 aminoacylation ribozyme variant]	1.75	2.41	5.03	1.69	6.22	1.82
CUACACUUCAAGCAAUCGGUG [Fam1B.1 aminoacylation ribozyme variant]	2.61	4.94	4.25	3.49	5.79	2.71
CUACACUUCAAGCACUCGGUC [Fam1B.1 aminoacylation ribozyme variant]	0.945	0.757	0.614	0.786	0.867	0.886

— the supplement of paper PMC9233669
